The source of these data is patent EP3964526A1 (Novartis AG, dated 2022).

A word on the Kd: it is the equilibrium constant for the complex coming apart. Broadly, the koff is the rate constant with which the complex falls apart. By kon is commonly meant the second-order rate constant of association.

Changes are numbered by the printed parent chain.

Assay [1] addresses T1, Human TNFa N-his trimers (human, UniProt P01375 77-233).
T1 construct: Captured at 5 nM on an NTA sensor chip by the N-terminal his-tags; also called His-tagged TNF (produced at ESBATech); not shown: N-terminal his-tag
Kind of assay: SPR BIAcore T100, His-tagged human TNF trimers captured on NTA chip, scFv as analyte.

The target of assay [2] is T2, recombinant human VEGF165 (PeproTech EC Ltd.) (human, UniProt P15692-4 27-191).
T2 construct: Amine-coupled to a CM4 sensor chip; also called hVEGF165
T2 sequence (P15692 other isoform, or with tags, fused parts or gaps limits assumed): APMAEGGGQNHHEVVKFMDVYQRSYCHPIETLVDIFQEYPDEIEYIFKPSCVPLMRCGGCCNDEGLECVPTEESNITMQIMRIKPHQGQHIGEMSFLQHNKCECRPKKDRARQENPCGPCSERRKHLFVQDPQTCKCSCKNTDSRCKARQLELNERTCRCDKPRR
Kind of assay: SPR BIAcore T100, hVEGF165 amine-coupled on CM4 chip, scFv as analyte. A general note: Surface plasmon resonance follows binding to a sensor surface in real time, without labels.

T1 sequence (P01375 77-233 limits assumed): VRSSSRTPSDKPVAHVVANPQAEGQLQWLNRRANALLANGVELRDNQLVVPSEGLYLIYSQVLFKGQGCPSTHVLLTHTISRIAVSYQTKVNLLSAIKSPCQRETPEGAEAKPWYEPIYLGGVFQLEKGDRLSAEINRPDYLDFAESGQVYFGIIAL

B1: EP6_min (scFv)
chain: EIVMTQSPSTLSASVGDRVIITCQASESIYSGLAWYQQKPGKAPKLLIYQASTLASGVPSRFSGSGSGAEFTLTISSLQPDDFATYYCQQGFGTSNVENPFGQGTKLTVLGGGGGSGGGGSGGGGSGGGGSEVQLVESGGGLVQPGGSLRLSCAASGFSLSRYGVSWVRQAPGKGLEWVSTIGEAGRAYYANWARSRFTISRDNSKNTLYLQMNSLRAEDTAVYYCAKGEVFNNGWGAFNIWGQGTLVTVSS
In the case of B1, the Kd in assay [1] worked out at 106 nM.

B2: 375-min (scFv)
chain: EIVMTQSPSTLSASVGDRVIITCQASENINIWLSWYQQKPGKAPKLLIYQASKLASGVPSRFSGSGSGAEFTLTISSLQPDDFATYYCQNNYSYNRYGAPFGQGTKLTVLGGGGGSGGGGSGGGGSGGGGSEVQLVESGGGLVQPGGSLRLSCAASGFSFTTTDYMCWVRQAPGKGLEWVSCILAGDGSTYYANWAKGRFTISRDNSKNTLYLQMNSLRAEDTAVYYCAKSDPASSWSFALWGQGTLVTVSS
B2: in assay [2], the Kd came out at 5.41 nM, the off-rate (koff) is 0.00501 s⁻¹ and the on-rate constant (kon) is 927000 M⁻¹ s⁻¹.

B3: 375-max (scFv)
chain: B2 chain with A69T, E70Q, A154K, S181G, I202G, R204K, N206T, L211V, K230R
On to B3, for which, in assay [2], the Kd stood at 2.68 nM, the dissociation rate constant (koff) is 0.00655 s⁻¹ and the association rate constant (kon) is 2.44e+06 M⁻¹ s⁻¹.

B4: 435-max (scFv)
chain: EIVMTQSPSTLSASVGDRVIITCQASQSIGSSLAWYQQKPGKAPKLLIYTAANLASGVPSRFSGSRSGAEFTLTISSLQPDDFATYYCQNFATSDTVTFGQGTKLTVLGGGGGSGGGGSGGGGSGGGGSEVQLVESGGGLVQPGGSLRLSCKASGFSLNTNYWMCWVRQAPGKGLEWVGCMYTGSYNRAYYASWAKGRFTSSKDTSKNTVYLQMNSLRAEDTAVYYCAKGSNWYSDLWGQGTLVTVSS
Turning to B4, in assay [2], the Kd is 4.53 nM, the koff was 0.000755 s⁻¹ and the on-rate (kon) amounted to 167000 M⁻¹ s⁻¹.

B5: EP15_min (scFv)
chain: EIVMTQSPSTLSASVGDRVIITCQASENIYTSLAWYQQKPGKAPKLLIYSASTLASGVPSRFSGSGSGAEFTLTISSLQPDDFATYYCQQGFATSNVENPFGQGTKLTVLGGGGGSGGGGSGGGGSGGGGSEVQLVESGGGLVQPGGSLRLSCAASGFTFSRYGVSWVRQAPGKGLEWVSAIGETGRAYYANWAKSRFTISRDNSKNTLYLQMNSLRAEDTAVYYCAKGEEFNNGWGAFNIWGQGTLVTVSS
On to B5, for which binding in assay [1] was put at a Kd of 262 nM.

B6: 610-min (scFv)
chain: EIVMTQSPSTLSASVGDRVIITCQASQSISSWLSWYQQKPGKAPKLLIYQASTLASGVPSRFSGSGSGAEFTLTISSLQPDDFATYYCQNNYGFRSYGGAFGQGTKLTVLGGGGGSGGGGSGGGGSGGGGSEVQLVESGGGLVQPGGSLRLSCAASGIDFSGAYYMGWVRQAPGKGLEWVSYIDYDGDRYYASWAKGRFTISRDNSKNTLYLQMNSLRAEDTAVYYCAKSDYSSGWGTDIWGQGTLVTVSS
Turning to B6, in assay [2], the Kd was determined as 10.6 nM, the koff was found to be 0.00265 s⁻¹ and the kon came out at 251000 M⁻¹ s⁻¹.

B7: 610-max (scFv)
chain: B6 chain with A69T, A154T, S181G, R203K, N205T, L210V, K229R
On to B7, for which, in assay [2], the Kd came to 1.18 nM, the koff turned out to be 0.000601 s⁻¹ and the on-rate (kon) is 509000 M⁻¹ s⁻¹.

B8: 534-max (scFv)
chain: EIVMTQSPSTLSASVGDRVIITCQASQSINIWLSWYQQKPGKAPKLLIYKESTLASGVPSRFSGSGSGTEFTLTISSLQPDDFATYYCQNNYDSGNNGFPFGQGTKLTVLGGGGGSGGGGSGGGGSGGGGSEVQLVESGGGLVQPGGSLRLSCTASGFSLSYYYMSWVRQAPGKGLEWVGIIGPGDYTDYASWAKGRFTISKDTSKNTVYLQMNSLRAEDTAVYYCARGDDNSGWGEDIWGQGTLVTVSS
For the molecule B8, in assay [2], the dissociation constant (Kd) was 9.21 nM, the off-rate (koff) turned out to be 0.0173 s⁻¹ and the kon was found to be 1.88e+06 M⁻¹ s⁻¹.
